assay: soluble on expression in E. coli; label from the status in PepcDB or PDB records

Sequence	soluble on expression in E. coli
MKFKAVFISDTHLGTKDSKASLLLEFIKEIETKELYLVGDIIDGWSLKRKWIWLQPHSDVIQKILKAARKGVRVTYILGNHDEFIRPFLPLALGDHIRVVDEATYKAKNKKRYKIVHGDLYDSITMTKKWLAILGDNGYQFLLRLNDPINTLRQRLGFRRYWSFSQFIKDHVKQAVAYISDFEKILVAHAREEKFDGIICGHIHKAEIRDIEGITYMNCGDWVESCTALVETLEGEFKIIRWLDER	not soluble
DGTVVNYVGFQRDITERKEHERRLKALSESVQDLLQADTREEVAEIGVETARTVLGLEANTIHLYNEAERTLEPVAASDGIYDLLEDLPTFTPGDSIAWRVYESGDALAVDDVHADPDIYNPDTPIKSELYLPLGRHGILLAGSGTNAAFDQR	not soluble
MSLASIVSVSSYPPPYLLKQETTTEFAKELFQEDFRDIERLLKSFSNGQIEERQFAVPLDWFRQDHSLQEKNDTYIKLATMFSVEVVRQCLQSNVFLKKPVAEEEIDTIVFVSSSGMATPSIEARMMNELPFSPHTKRVPMWGLGCAGGAAGMSRAYEYCRAFPRANVLVVCVELCSLTFQRQDRTKSNLIGASLFSDGVACALVSGDESDVLGRMKMPTRPLILGSSSTLMPDSEQVMGWDVKDTGLHVVFSRDIPNIIRHWLRPNVERFLETYRLSLEQIEAFIAHPGGRKVLEAYEEALSFSDEMTEYSRDILRHHGNMSSPTVLYVLEKFMKDTRDPGQYGLMAALGPGFCSELVLMQWEAVHEGHHHHHH	soluble
MKLKIDLNCDLGEAFGNYTFGGDQHILPLITSANIACGYHAGDEDVMNETVQLAKKNNISIGAHPGLPDLKGFGRRKMDLTPNEIYNLVIYQLGALSGFCKINHVKMMHVKPHGALYQMGARNKEIAHAIAQAVFDFDSNLIFVGLANTLLISEAELVGLKVASEVFADRRYEDDGQLVSRKKTDATITNTDEAIQQALKMVLENKVVSKNGKIIDLKADTICVHGDGKHALEFVTQIRNELMKEGIDIQSLLEHHHHHH	soluble
MNVFAFSISGGGSERSYKETEKTSAMTTTHSTKLQPSQAILFKMREDAPPLNLTEEMPPPFPTKANYLIHPVRLEHHHHHH	not soluble
SMTIGRAKVYATLSKIFYHLFYDEAIPKDCREIIEKFGEIDFNLRSVLVRELRGSVLIKDMPQSLAEVYESVMKDFYERYGFQASELHADHIAVELAFMSKLVEREISLAQQMKEEELYKIRAAQHRFIKAHLQPLVKNLPSAPLLNFVRDFVREDAKYLYSSLVGEKNEGADNN	soluble
VGPGMPFANRVVNRFGQVGLVPCSIGGTKLSQWQKGEFLYEETVKRAKAAMASGGGGSYRAVLWYQGESDTVDMVDASVYKKRLVKFFSDLRNDLQHPNLPIIQVRCLNT	soluble
MYDYSILPNRIILCVDLRSFYASVSCIKMGLDPMHTKLAVVGDVNRNGSIVLAATPPLKALGVKKMARLYEIPRRKDILVVNPIMSTYIKCSNYITKLALQYVPIEDFHQYSIDEFFMDITDSIHLFAQDPYEFAMKFKREIYDHTRIECTIGIAPNPLMSKVALDIEAKKNKDGIAFWQYEDIPTKLWSIRPLNKFWGISYKTEEKLNRKGIYSIGDLANYPLKYLKQSFGKIGEELHLHSHGIDFSRISEKYVPATTSIGKSQILMRDYTIEEFPIILLEHIEEVCYRLRRQTKLAQTIHFSVGYSKSYTGGIRKTHTLNRPTNLTMDIYHICTYFLHQQYTGEPIRSINISLTNLIQEGEEQISLFDNVTKREQEMKLTKVMDEIRTKFGKNSILRGISYTHSATARHRNTLIGLEHHHHHH	not soluble
MPVLTSGQQERKSKQRKIRNSEYYDMEGTFDRLYAESKKDKTFNHLMEIIESEENIKLAYRTIKKNTGSDTSGVDKRTIADLAKLSEEEYVRLIRKQFSNYHPGPVRRVEIPKPNGKTRPLGIPTIVDRIVQQCILQVMEPICEAKFSENSNGFRPNRSAETAIAQCMRLIQVQHLYHVVDLDIKGFFDNISHTKLIRQIWALGIRDKKLLCIIKEMLKAPVVLPNGEKTYPARGTPQGGILSPLLANIVLNELDWWIASQWEEMPTKTKFKTRSNAQGTEIKSHAYRALRRSRLKEMHAVRYADDFKIFCATHEDAVRAYKATELWLKDRLGLEISPDKSKVVNLKRQYSDFLGFKLKVRKKGKKYVVRSHMSDKAYKKAHEKVSEEVKKLAYSSDDNAQFMQLQKYNSVVAGLHEYYCISTEVSHDFSRLAFSINKQLRNRLKGDLSKKGQLRNGFIKEKYGASRQMRFLHGRPVVPLGYVQSKNAQHKRKSINKYTVKGREQIHKNLAIDTATMLWLMRNPVKGRTIEYADNRISLYAAQYGKCAVTGIPMNSHDIHCHHKVPVSNGGSDEYANLILVSKAVHILIHASSEPTIEKYLKSLNLDNKQIEKLNKLRSMAEMPPIIL	not soluble
MSLSQGALYLVPTPIGNLEDMTFRAIRMLKEADIIAAEDTRNTVKLLNHFEITTRMTSYHQFTKENKEDNIIQRMLDGEVVALVSDAGMPSISDPGYELVQSALNANIPVIPLPGANAALTALIASGLAPQPFYFYGFLPRQNKERTQAIEKLAAREETWILYESPHRLKETLKAIIKITGNDRKIVLCRELTKRFEEFLRGTVEDALNWAMDEEVRGEFCLIIEGNANPPLAEEQLWWQELDIKTHVSTVMEQENVSSKDAIKTVMKARNLPKREVYSAYHEIKEGHHHHHH	soluble
MKAIISYETPLEQAHFTAKNDEKNMFYKENTEESVEGSLQYDVLDAVGEFKGQPGYIVCNNISVTDEGRPVFENRFKNRAGLIENEPGFQAIRVLRPLSNDTYVILTMWETEQNFKDWTESRSFENAHKKRPVQAEGQAPAHPHAEQQKSIFSRPSFVTTFDVLV	not soluble
MGSDKIHHHHHHMQRKKIGVALGSGAAKGWAHIGVLNALTEMGIEVDVVAGCSIGALVGAAYATNNLSSMDRWVRSFGYWDVIRLMDLSWQRGSLLRGDRVFNSVKHLLHTTQIEDCDIKYGVVTTNLSTGRELWLTEGDLHQAMRASCSMPGLLSPVRFNDYWLVDGAVVNPVPVSLARAMGADIVIAVDLQHDASLNHQDLLSIKPTASDIDAENVPQDWRSRIRERLLRGRRHPAESSPTAMEIMSTSIQILENRLKMTRMAGDPPDVLLQPHCPQIATLDFHRAQEAIDAGYKAVEKMRDELLPLAKEA	not soluble
MAHHHHHHMHECKDDRVLEKIQQINGYENIKLGDKKVLCDEIWTVTRCDKKFSYWIRYYEEDKNGYSLSVLPTQLKNIYYFLKYYYF	not soluble
MTTSCLQEKIDKLQNTVHALLHKSNYMAGVYVDDLARLNNEIHEQINDLYPCHGKTAEQEAALCLSLLMGYSVSMYANSEDEAKKKTVLRRSQMILKNQLPSPLKIQLHTIYDKLLS	not soluble
MQLGISKEQAGTVIGGLAGVAIGSTMGSGNGKIAAALIAGGIGAYVGNRIGHMLDEKDQQALALRTQEVLSQQQTTASAQPVTWKSDHSGATAQIVPGKEYTKTKQVEVKRAPKIQAVPSMKLINEPYVTISDNLNVRAAPNQAGEKVGSLKNHTEFTAVGSTGDWILVGRKGVTVGYVHKNYVEPKAQAVAKRVTPAVNLDELDVAASKETQGFDLDSVQSLPTQTVAAEAACRPVTVSLKSLEHHHHHH	soluble
MVDLKRLRQEPEVFHRAIREKGVALDLEALLALDQEVQELKKRLQEVQTERNQVAKRVPKAPPEEKEALIARGRALGEEAKRLEEALREKEAQLEALLLQVPLPPWPGAPVGGEEANREIKRVGSPPEFSFPPLDHVALMEKNGWWEPRISQVSGSRSYALKGDLALYELALLRFAMDFMARRGFLPMTLPSYAREKAFLGTGHFPAYRDQVWAIAETDLYLTGTAEVVLNALHSGEILPYEALPLRYAGYAPAFRSEAGSFGKDVRGLMRVHQFHKVEQYVLTEASLEASDRAFQELLENAEEILRLLELPYRLVEVATGDMGPGKWRQVDVEVYLPSEGRYRETHSCSALLDWQARRANLRYRDPEGRVRYAYTLNNTALATPRILAMLLENHQLQDGRVRVPKALVPYMGKEVLEPCG	soluble
MSHYDILQAPVISEKAYSAMERGVYSFWVSPKATKTEIKDAIQQAFGVRVIGISTMNVPGKRKRVGRFIGQRNDRKKAIVRLAEGQSIEALAGQA	soluble
MGSDKIHHHHHHMTTYRTVSIDGLDIFYREAGSRNNPTILLLHGFPTSSHMFRNLIPALADKFHLVAPDYPGYGNSSMPTVNEFDYTFDNLAEIVEKFIAAIALKKYSLYVMDYGAPIGYRIAAKYPERVQSLIVQNGNAYEEGLREFWEPIKAYWQERSPENAEKLKYLVTLEATKWQYTNGVRNLEAISPDTWTMDQHFLDRPGNDEIQLALLYSYGTNPLLYPQWQEYFRNYQPPTLIVWGKNDYIFPADGAYPYQRDLKDVEFHLLDTGHFALEEDGDAIANYIDQFLTSRLQSIPV	not soluble
MAHHHHHHMNEIVINNLNYNYYNGIQRTRIKALQNVNLCFERGMRILVCGKNGAGKSTLLSIIAGKKLIKENEVLIFNKQAFHDTDISNKIGYVGEWWSEEYAMNISIKDFCFNYEYTKRYKNLLKLFELDENKIISNLSKGERKKVQIMVNIIVRKDIYIFDEATESLDLVSRKLLLE	soluble
MGSDKIHHHHHHMIGLNCKPLYIENAENQLYNPTLNIKTTMTYLETAAQFYSEVAQTPQVGLCCVQSTPLQLPGLKIPLSMQEMNYGCGTTVHPTELGKQPTVLYVGVGGGLEALQFAYFSRRPGAVIAVDPVAAMREAAARNLEMALTDNPWFESSFVEIREGDAFNLPVADGSVDIVAQNCLFNIFEPEDLTRALKEAYRVLKCGGRLQMSDPIATSPIPAHLQQDERLRAMCLSGALTYEEYTQRIIDAGFGQIEIRARRPYRLLDSQTYNLETHLLLESLDSVSFKVPIPEDGACIFTGKTAIYAGCEDFFDDKAGHILQRGIPATVCDKTAAKLATVKPKEVIITDSTWHYNGGGCC	not soluble
KSIHDAGQRVQIYFSDAAGLVAGRTTIRYQGLEVGMVRDINLSEDLGSIYVDADIYPEATKLLNDKTRFWLVKPTASLTGVSGLDALVSGNYISIQPGDGQEFETTFHALDSAPTDLRVSQGLNIKLKSRDLGGVSIGSQIVYKKIPIGAVYSYQLDEDAKSITIQANIQEQYRHIINDRSRFWNVSGIGASIGFEGVDVRLESMSALLGGAIAVDSPDDGEPVEENTEFRLYKDLKTAGRGIAIKIALPDDNKVSSEGAPIMYRGIEIGQVTDLSLSEGREVILASAAIQPAFSDMLTTGTRFVLEEAKVSLSGVENIANLVRGNFLTIVPGDGERSRRFTAIRKNVFNQQQEKSIAIRLISDNSFGLDSGAN	not soluble
MKDPDRWMDVKEFLPLLAQKEWYTKTRFGYARGHEPVVYVQNIRRYYDVLVRITEPDAPSASGLEDQLAWLEHHHHHH	not soluble
MGSDKIHHHHHHMLEIIMSSIKSRQLTHSALASNIDIHDVTHFLLELDALKRVNRRSYVTGANRLENSAEHSWHLAMACWSIAELFELDVNQEKLLKMALVHDLGEIDAGDTFLYADTRGDAHLEERAGIARLQGERGNGISNLNEIWEEQETGSSTETQLLKVVDRLLPFLLNLNTNGKTWIELSVTRSQVSEAHAFIKDSFPSIHDWLAAQIEFATQQGWLIDT	not soluble
SSSLTSENAETKVGVFWDVEECPVPDGVEPSVVCENIKLALEKKGYRPCNVSIRVYGERTNKFKDDFLLADIMFLPAGDEGARFMRMCNDFFCWGNDNRKSTLMVMSRDSTEFASSFVMYKNLNFNILVAQPENVDRKCPVCRKPLEMIITDEWVWESLSAGGDPLPKTQEEPDLSNSCH	soluble

Reference: the DeepSol protein solubility set
